Source: PMC5095699 (Biochemistry, 2015)
Where a chain is given by its changes, count along the chain named. Numbers in names are those of the source. Read-outs that look alike come from different tables or passages of the source.

What was measured:
[1] = target: 3,4-ketoisomerase domain of FdtD from Shewanella denitrificans (Shewanella denitrificans); experiment: crystal structure
QdtA = QdtA (Thermoanaerobacterium thermosaccharolyticum, UniProt Q6TFC5, Y17R/R97H); experiment: X-ray crystal structure, […] A; format: binding; conditions: dTDP co-purified from E. coli, not added; pH 6; active site
[2] = target: 3,4-ketoisomerase domain of FdtD (Shewanella denitrificans, UniProt Q12KT8); experiment: X-ray crystal structure, […] A; format: binding; conditions: crystal soaked with 3 mM ligand, pH 7; active site, substrate analogue
purified protein [3] = substrate: Cc1cn([C@H]2C[C@H](O)[C@@H](COP(=O)(O)OP(=O)(O)O[C@H]3O[C@H](C)C(=O)[C@H](O)[C@H]3O)O2)c(=O)[nH]c1=O; experiment: purified protein; format: biochemical, Shewanella denitrificans; conditions: 50 mM HEPES pH 7.5, 0.2 mM NADPH, 1 mg/mL KijD10
purified protein [4] = substrate: Cc1cn([C@H]2C[C@H](O)[C@@H](COP(=O)(O)OP(=O)(O)O[C@H]3O[C@H](C)C(=O)[C@H](O)[C@H]3O)O2)c(=O)[nH]c1=O; experiment: purified protein; conditions: 50 mM HEPES pH 7.5, 0.2 mM NADPH, 1 mg/mL KijD10
crystal structure [5] = target: the molecule itself; experiment: crystal structure
purified protein [6] = substrate: Cc1cn([C@H]2C[C@H](O)[C@@H](COP(=O)(O)OP(=O)(O)O[C@H]3O[C@H](C)C(=O)[C@H](O)[C@H]3O)O2)c(=O)[nH]c1=O; experiment: purified protein; format: biochemical, Thermoanaerobacterium thermosaccharolyticum; conditions: 50 mM HEPES pH 7.5, 0.2 mM NADPH, 1 mg/mL KijD10
crystal structure [7] = target: the molecule itself; experiment: crystal structure; remark: listed apart in the source

“3,4-ketoisomerase domain of FdtD from Shewanella denitrificans (domain or fragment)” showed a stoichiometry N [1] of 2.

For `Cc1cn([C@H]2C[C@H](O)[C@@H](COP(=O)(O)OP(=O)(O)O)O2)c(=O)[nH]c1=O` [dTDP], the “X-ray crystal structure, 2.3 A” value (QdtA) was “Observed electron density for the dTDP moiety bound to the QdtA Y17R/R97H mutant enzyme”.

With `Cc1cn([C@H]2C[C@H](O)[C@@H](COP(=O)(O)OP(=O)(O)O[C@H]3O[C@H](C)[C@@H](NC=O)[C@H](O)[C@H]3O)O2)c(=O)[nH]c1=O` [dTDP-4,6-dideoxy-4-formamido-glucose] the “X-ray crystal structure, 1.7 A” value [2] was “structure of the enzyme was solved in the presence of dTDP-4,6-dideoxy-4-formamido-D-glucose”.

B1: 3,4-ketoisomerase domain of FdtD (Shewanella denitrificans OS217) (protein)
chain: SNNFELKLQMSKVKGVSLHKFHLVNDLRGNLSVGEFEKDIPFTPKRYFTVFGVPNKEVRGEHAHKECKQFLICVSGNCSVLVDDGENREEYVLDSIDKGIYLPPMTWGVQYKYSKDAVLLVFASHYYDSDDYIRDYSTFKQMRQN
Molecule B1 has a Km (purified protein [3]) of 790 ± 120 µM, a kcat (purified protein [3]) of 4.85 ± 0.56 s⁻¹ and a kcat/Km (purified protein [3]) of 6100 M⁻¹ s⁻¹.

B2: QdtA (Thermoanaerobacterium thermosaccharolyticum; Y17R) (protein)
chain: MLYNVALIKFKDIADKRGHLTPIEGKIDIPFDIKRVYYITKVDKDITRGYHAHKKLHQVLICLNGSVKIRLKIPDEEKIIELNDPSVGLYIGPFLWREMFDFTEGCVLLVLASEYCDETDYIRNYDFYIDEAKKRF
B2 gave a Km (purified protein [4]) of 370 ± 60 µM.

B3: QdtA from Thermoanaerobacterium thermosaccharolyticum, wild-type apoenzyme (enzyme)
chain: B2 chain with R17Y
In the case of B3, the “stoichiometry N” value (crystal structure [5]) is reported as 2, the Km (purified protein [6]) is reported as 140 ± 10 µM and the kcat (purified protein [6]) is reported as 3.85 ± 0.25 s⁻¹. For the same molecule, the kcat/Km (purified protein [6]) was 28000 M⁻¹ s⁻¹.

B4: QdtA (Thermoanaerobacterium thermosaccharolyticum; Y37F) (protein)
chain: B2 chain with R17Y, Y37F
B4 was tested, and the Km (purified protein [6]) was 34 ± 7 µM, the kcat (purified protein [6]) was 0.023 ± 0.004 s⁻¹ and the kcat/Km (purified protein [6]) was 690 M⁻¹ s⁻¹.

B5: QdtA (Thermoanaerobacterium thermosaccharolyticum; R97H) (protein)
chain: B2 chain with R17Y, R97H
For B5, the Km (purified protein [6]) was 61 ± 9 µM, the kcat (purified protein [6]) was 0.4 ± 0.06 s⁻¹ and the kcat/Km (purified protein [6]) was 6500 M⁻¹ s⁻¹.

B6: QdtA Y17R/R97H double mutant from Thermoanaerobacterium thermosaccharolyticum (enzyme)
chain: B2 chain with R97H
For B6, the Km (purified protein [4]) was 21 ± 5 µM and the “stoichiometry N” value (crystal structure [7]) was 2.
